# Results taken from US11485769B2, “Peptides and combination of peptides for use in immunotherapy and methods for generating scaffolds for the use against pancreatic cancer and other cancers” (Immatics Biotechnologies GmbH, priority 2015, dated 2022).
# Target: HLA-A*02:01 (Homo sapiens, UniProt P04439, D140Y/D185E/D98H/E176V/E277Q/G131W/G231S/I119V/I121R/I166T/I218V/L300P/L318F/N151K/N90K/P208A/P217A/Q86G/Q94H/R138H/R169H/T345S)
# Assay: MHC binding assay (UV-ligand exchange, beta2m ELISA, peptide exchange yield)
# Conditions: binding to HLA-A*02:01 ranged by peptide exchange yield, β2m ELISA
# Text: Candidate peptides for T cell based therapies according to the present invention were further tested for their MHC binding capacity (affinity). The individual peptide-MHC complexes were produced by UV-ligand exchange, where a UV-sensitive peptide is cleaved upon UV-irradiation, and exchanged with the peptide of interest as analyzed. Only peptide candidates that can effectively bind and stabilize the peptide-receptive MHC molecules prevent dissociation of the MHC complexes. To determine the yield of the exchange reaction, an ELISA was performed based on the detection of the light chain (β2m) of stabilized MHC complexes. The assay was performed as generally described in Rodenko et al. (Rodenko et al., 2006).
# 96 well MAXISorp plates (NUNC) were coated over night with 2 ug/ml streptavidin in PBS at room temperature, washed 4× and blocked for 1 h at 37° C. in 2% BSA containing blocking buffer. Refolded HLA-A*02:01/MLA-001 monomers served as standards, covering the range of 15-500 ng/ml. Peptide-MHC monomers of the UV-exchange reaction were diluted 100 fold in blocking buffer. Samples were incubated for 1 h at 37° C., washed four times, incubated with 2 ug/ml HRP conjugated anti-μ2m for 1h at 37° C., washed again and detected with TMB solution that is stopped with […]. Absorption was measured at 450 nm. Candidate peptides that show a high exchange yield (preferably higher than 50%, most preferred higher than 75%) are generally preferred for a generation and production of antibodies or fragments thereof, and/or T cell receptors or fragments thereof, as they show sufficient avidity to the MHC molecules and prevent dissociation of the MHC complexes.
# MHC class I binding scores. Binding of HLA-class I restricted peptides to HLA-A*02:01 was ranged by peptide exchange yield: ≥10%=+; ≥20%=++; ≥50=+++; >75%=++++
row,Substance,Peptide exchange (MHC class I binding score)
1,60 (SLWEDYPHV; listed as Homo sapiens) [compound 60],“++++” (>75%=++++)
2,61 (SMYDGLLQA; listed as Homo sapiens) [compound 61],“++” (≥20%=++)
3,62 (SVFPGARLL; listed as Homo sapiens) [compound 62],“+” (≥10%=+)
4,64 (TLFSEPKFAQV; listed as Homo sapiens) [compound 64],“++++” (>75%=++++)
5,65 (TLNEKLTAL; listed as Homo sapiens) [compound 65],“+++” (≥50=+++)
6,67 (VIWGTDVNV; listed as Homo sapiens) [compound 67],“++++” (>75%=++++)
7,71 (VLLPEGGITAI; listed as Homo sapiens) [compound 71],“+++” (≥50=+++)
8,72 (VMASPGGLSAV; listed as Homo sapiens) [compound 72],“+++” (≥50=+++)
9,73 (VMVDGKPVNL; listed as Homo sapiens) [compound 73],“++++” (>75%=++++)
10,74 (YIDKDLEYV; listed as Homo sapiens) [compound 74],“+++” (≥50=+++)
11,77 (RLFPGSSFL; listed as Homo sapiens) [compound 77],“++++” (>75%=++++)
12,78 (SLQDTEEKSRS; listed as Homo sapiens) [compound 78],“+++” (≥50=+++)
13,79 (VVYEGQLISI; listed as Homo sapiens) [compound 79],“+++” (≥50=+++)
14,81 (VVYDDSTGLIRL; listed as Homo sapiens) [compound 81],“+++” (≥50=+++)
15,83 (ALSKEIYVI; listed as Homo sapiens) [compound 83],“+++” (≥50=+++)
16,86 (GLGDFIFYSV; listed as Homo sapiens) [compound 86],“++++” (>75%=++++)
17,88 (IIDDTIFNL; listed as Homo sapiens) [compound 88],“+++” (≥50=+++)
18,89 (KLADIQIEQL; listed as Homo sapiens) [compound 89],“+++” (≥50=+++)
19,91 (LLFNDVQTL; listed as Homo sapiens) [compound 91],“+++” (≥50=+++)
20,92 (YLTNEGIAHL; listed as Homo sapiens) [compound 92],“++++” (>75%=++++)
21,93 (SIDSEPALV; listed as Homo sapiens) [compound 93],“+++” (≥50=+++)

row,Substance,Peptide exchange (MHC class I binding score)
1,94 (VMMEEFVQL; listed as Homo sapiens) [compound 94],“+++” (≥50=+++)
2,96 (ALAPATGGGSLLL; listed as Homo sapiens) [compound 96],“+++” (≥50=+++)
3,98 (ALDQKVRSV; listed as Homo sapiens) [compound 98],“++” (≥20%=++)
4,99 (ALESFLKQV; listed as Homo sapiens) [compound 99],“+++” (≥50=+++)
5,102 (ALYPGTDYTV; listed as Homo sapiens) [compound 102],“+++” (≥50=+++)
6,104 (FLQPDLDSL; listed as Homo sapiens) [compound 104],“+++” (≥50=+++)
7,105 (FLSEVFHQA; listed as Homo sapiens) [compound 105],“+++” (≥50=+++)
8,106 (FVWSGTAEA; listed as Homo sapiens) [compound 106],“+++” (≥50=+++)
9,109 (ILASVILNV; listed as Homo sapiens) [compound 109],“++++” (>75%=++++)
10,111 (LLLAAARLAAA; listed as Homo sapiens) [compound 111],“+++” (≥50=+++)
11,114 (SLFPHNPQFI; listed as Homo sapiens) [compound 114],“+++” (≥50=+++)
12,115 (SLMDPNKFLLL; listed as Homo sapiens) [compound 115],“+++” (≥50=+++)
13,116 (SMMDPNHFL; listed as Homo sapiens) [compound 116],“++++” (>75%=++++)
14,117 (SVDGVIKEV; listed as Homo sapiens) [compound 117],“+++” (≥50=+++)
15,121 (YLDEDTIYHL; listed as Homo sapiens) [compound 121],“++” (≥20%=++)
16,122 (MQAPRAALVFA; listed as Homo sapiens) [compound 122],“++++” (>75%=++++)
17,123 (KISTITPQI; listed as Homo sapiens) [compound 123],“++” (≥20%=++)
18,124 (ALFEESGLIRI; listed as Homo sapiens) [compound 124],“+++” (≥50=+++)
19,126 (ALLSLDPAAV; listed as Homo sapiens) [compound 126],“++++” (>75%=++++)
20,127 (ALSDLALHFL; listed as Homo sapiens) [compound 127],“++++” (>75%=++++)

# Continued, values first:
row,Peptide exchange (MHC class I binding score),Substance
1,“++” (≥20%=++),58 (RQYPWGVVQV; listed as Homo sapiens) [compound 58]
2,“+++” (≥50=+++),59 (SLSESFFMV; listed as Homo sapiens) [compound 59]
3,“++++” (>75%=++++),63 (SVTGIIVGV; listed as Homo sapiens) [compound 63]
4,“+++” (≥50=+++),68 (VLFDVTGQV; listed as Homo sapiens) [compound 68]
5,“+++” (≥50=+++),69 (VLFSGSLRL; listed as Homo sapiens) [compound 69]
6,“++++” (>75%=++++),70 (VLGVIWGV; listed as Homo sapiens) [compound 70]
7,“+++” (≥50=+++),80 (LLPGTEYVVSV; listed as Homo sapiens) [compound 80]
8,“+++” (≥50=+++),82 (ALIAEGIAL; listed as Homo sapiens) [compound 82]
9,“++++” (>75%=++++),84 (FILPIGATV; listed as Homo sapiens) [compound 84]
10,“++++” (>75%=++++),85 (FLSDGTIISV; listed as Homo sapiens) [compound 85]
11,“+++” (≥50=+++),87 (GLLPALVAL; listed as Homo sapiens) [compound 87]
12,“+++” (≥50=+++),90 (KLLTPITTL; listed as Homo sapiens) [compound 90]
13,“+++” (≥50=+++),95 (ALADDDFLTV; listed as Homo sapiens) [compound 95]
14,“+++” (≥50=+++),97 (ALDDMISTL; listed as Homo sapiens) [compound 97]
15,“+++” (≥50=+++),100 (ALFGAGPASI; listed as Homo sapiens) [compound 100]
16,“+++” (≥50=+++),101 (ALVEENGIFEL; listed as Homo sapiens) [compound 101]
17,“+++” (≥50=+++),103 (AVAAVLTQV; listed as Homo sapiens) [compound 103]
18,“+++” (≥50=+++),107 (FVYGGPQVQL; listed as Homo sapiens) [compound 107]
19,“+++” (≥50=+++),110 (ILLTGTPAL; listed as Homo sapiens) [compound 110]
20,“+++” (≥50=+++),112 (LLSDVRFVL; listed as Homo sapiens) [compound 112]
21,“+++” (≥50=+++),113 (LMMSEDRISL; listed as Homo sapiens) [compound 113]
22,“+++” (≥50=+++),118 (TLWYRPPEL; listed as Homo sapiens) [compound 118]
23,“+++” (≥50=+++),119 (VLGDDPQLMKV; listed as Homo sapiens) [compound 119]
24,“+++” (≥50=+++),125 (ALLGKLDAINV; listed as Homo sapiens) [compound 125]
